# From US20140170125A1, “USE OF CARDIOTROPHIN-1 FOR THE TREATMENT OF KIDNEY DISEASES” (DIGNA Biotech, S.L., priority 2011, published 2014)
# “Also recorded” adds a separate entry of the source.
# B1: CT-1: cytokine belonging to the interleukin 6 family; recombinant human CT-1 or rat cardiotrophin-1 administered i.v. (protein, UniProt Q16619 1-201, looked up)
# Cardiotrophin-1: MSRREGSLEDPQTDSSVSLLPHLEAKIRQTHSLAHLLTKYAEQLLQEYVQLQGDPFGLPSFSPPRLPVAGLSAPAPSHAGLPVHERLRLDAAALAALPPLLDAVCRRQAELNPRAPRLLRRLEDAARQARALGAAVEALLAALGAANRGPRAEPPAATASAASATGVFPAKVLGLRVCGLYREWLSRTEGDLGQLLPGGSA
# Tests used:
# [1] = test system: experimental model of iodinated contrast nephropathy; experiment: Contrast-induced nephropathy: Gastrografin in rats sensitized with subtoxic gentamicin
# Procedure: The rats were placed in individual metabolic cages where they had free access to food and drink. After two days of acclimatization, the 24-hour urine was collected in graduated cylinders. The urine collected was centrifuged during 8 minutes at 2,500 rpm, to clean it from residues not thereof, the clean urine was collected and it was stored at −80° C. for its later analysis.
# The blood samples were obtained in capillaries with heparin by a small cut at the end of the tail. Five capillaries were extracted per rat (200 μL), and the capillaries were centrifuged in a microcentrifuge at 11,000 rpm during three minutes. Once centrifuged, the capillaries were broken with the aid of a file, by the cells-plasma limit. The plasma was extracted and stored in eppendorf tubes at −80° C. for its later analysis.
# To measure kidney function, the plasma concentrations of creatinine and creatinine clearance, which is a measurement of the glomerular filtration rate, were determined. The creatinine clearance (CrCl) was calculated from the formula CrCl=UF×CrU/CrP, where UF is the urinary flow (ml/min), CrU the creatinine concentration in urine (mg/ml) and CrP the creatinine concentration in plasma (mg/ml). The creatinine concentration in urine and in plasma were measured by a semiautomatic analyser (Reflotron, Roche).
# The concentration of urea in plasma was measured by specific reactive strips of a commercial kit, using a semiautomatic analyser (Reflotron, Roche).
# The concentration of proteins in urine (proteinuria) was measured by Bradford's colorimetric method (Anal Biochem. 1976; 72:248-54). The urinary excretion of proteins (UEprot) in 24 hours was calculated by the formula: UEprot=Cprot×FU24 h, where Cprot is the concentration of proteins in urine (mg/mL) and FU24 h the urinary flow of 24 hours (mL/day).
# For its determination a commercial kit from Roche was used, following the manufacturer's specifications, and the results were analysed with the KC-Junior software.
# In the Western Blot technique, 100 μg of protein of the total of the renal tissue homogenate or a volume of urine of each animal which corresponds to the excretion fraction were loaded in a polyacrylamide gel. After separation by electrophoresis, these proteins were transferred to a PVDF membrane (Inmobilon-P #IPVH00010, Madrid, Spain), and they were hybridized with antibodies against KIM-1 (R&D Systems) and NGAL (MBL).
# An experimental model of iodinated contrast nephropathy was used, consisting of the intravenous administration of the iodinated contrast Gastrografin (Bayer C. N. 909622 EXO) to rats predisposed to suffering acute kidney failure.
# The experiment was performed on 32 male Wistar rats of around 220 grams in weight. The environmental conditions of the animals were kept constant: temperature of around 20° C., humidity of approximately 60% and daily light period (photoperiod) of 12 hours.
# Six experimental groups were considered in the design study:
# Control group (C): rats administered saline solution (n=5).
# Cardiotrophin group (CT-1): rats administered cardiotrophin i.v. (100 μg/Kg/day) the day before the administration of the contrast and in the four subsequent days (n=5).
# Gastrografin group (Gg): rats administered a single dose of iodinated agent i.v. (10 mL/Kg; […]) (n=5).
# The animals were housed in metabolic cages in order to collect the urine free of faeces. Likewise, a blood sample was obtained every day (0.150 ml) from the tail in heparized capillaries.
# At the end of the experiments (four days after administration of the iodinated contrast) the rats were anaesthetized and, later, they were perfused with heparinized saline solution. The kidneys were obtained from these animals and part of the samples was introduced in formol to perform histological studies whilst another part was ultrafrozen for the tissue studies.
# The studies performed were the following:
# Plasma creatinine, Plasma urea, proteinuria, microalbuminuria
# Creatinine clearance in metabolic cages
# [2] = test system: rats subjected to 60 minutes of left renal ischemia; experiment: Acute kidney injury produced by renal ischemia/reperfusion (60 minutes of left renal ischemia); assay type: in vivo
# [3] = test system: cisplatin-induced kidney injury; experiment: Acute kidney injury produced by cisplatin; assay type: in vivo, Wistar rats
# Procedure: The urinary flow (mL/day) was evaluated measuring the graduated receptacles containing the 24-hour urine in the metabolic cages as indicated in the obtainment of urine.
# The experiment was performed in 24 male Wistar rats of around 220 grams in weight.
# The animals were divided in 4 experimental groups, comprising 6 rats per group. […] The experimental design was developed as described below:
# Group I (Control, C, n=6 animals) animals treated with vehicle via i.v. during 7 days.
# Group II (Cardiotrophin-1, CT-1, n=6 animals) animals administered a daily dose of cardiotrophin-1 of 100 μg/kg body weight via i.v. during 7 days.
# [4] = test system: acute kidney injury produced by gentamicin; experiment: Acute kidney injury produced by gentamicin
# [5] = agents without CT-1 protection or alone, vs control
# [6] = group Gg+G+CT-1, CT-1 100 μg/Kg/day i.v.
# [7] = 4 hours after reperfusion, elevation induced by IR
molecule,measurement,setting,value
B1,creatinine clearance,[1]; [5],did not alter
same,plasma concentration of creatinine,[1]; [5],did not alter
same,proteinuria,[1]; [5],did not alter
same,urea plasma concentration,[1]; [5],did not alter
same,effect on the RPF decrease produced by Gg+G,[1]; co-treatment with CT-1,reversal
same,effect on the RVR increase produced by gentamicin and gastrografin,[1]; coadministration of CT-1,counteracted the increase
same,PAI-1 in the urine under Gg+G with CT-1,[1]; group Gg+G+CT-1,does not appear
same,effect on the GFR decrease produced by Gg+G,[1]; group Gg+G+CT-1,reversed
same,effect on the NAG increase produced by Gg+G,[1]; group Gg+G+CT-1,reduced this increase
same,effect on the decrease in creatinine clearance produced by Gg+G,[1]; [6],partially reversed
same,effect on the increase in plasma concentration of creatinine produced by Gg+G,[1]; [6],partially reversed
same,effect on the increase in plasma urea produced by Gg+G,[1]; [6],partially reversed
same,effect on the proteinuria produced by Gg+G,[1]; [6],partially reversed
same,KIM-1 in the urine (Western blot),[1]; in comparison with the controls,produced no effect
same,deterioration of renal excretory function and intensity of tubular damage (conclusion),"[1]; recombinant human CT-1 i.v. 100 μg/kg/day, contrast nephropathy in animals sensitized with gentamicin",reduces
same,"general condition (appearance, mobility)",[1]; throughout the experiment,healthy appearance and normal mobility
same,survival,[1]; until the end of the experiment (four days after contrast),all animals survived until the end of the experiment
same,effect on the increase in KIM-1 expression produced by Gg+G,"[1]; urine, Western blot, group Gg+G+CT-1",considerably decreases the increase
same,PAI-1 in the urine (Western blot),[1]; vs control group,not different from the control group animals
same,decrease of plasma levels of IL-6 after ischemia and reperfusion,[2]; 4 hours after reperfusion,not observed
same,decrease of plasma levels of IL-10 after ischemia and reperfusion,[2]; 4 hours after reperfusion,not observed
same,plasma levels of IFN-γ,[2]; [7],blocked the elevation
same,plasma levels of IL-1β,[2]; [7],blocked the elevation
same,plasma levels of TNF-α,[2]; [7],blocked the elevation
same,obstructed tubules and vacuolated cells (histology),"[2]; 24 hours after reperfusion, vs control kidneys",less abundant
same,creatinine clearance,"[2]; 48 hours after I/R, vs IR C",significantly higher
same,plasma creatinine,"[2]; 48 hours after I/R, vs IR C, no significant differences vs simulated group",markedly lower
same,denuded tubules and inflammatory infiltration (histology),"[2]; 48 hours after reperfusion, vs control kidneys",less abundant
same,mortality,"[2]; 14 days after the I/R, CT-1 400 μg/kg, untreated ischemic group 40%",20%
same,acute kidney injury induced by ischemia/reperfusion (conclusion),"[2]; also decrease in kidney function, oxidative stress and inflammation",prevents acute kidney injury
same,renal levels of superoxide anion (SOA),"[2]; four hours after reperfusion, vs ischemic control group, significantly greater than simulated group",significantly less
same,body weight,"[3]; agent alone, vs control group",without apparent differences; also recorded: does not show changes
same,plasma creatinine,"[3]; agent alone, vs control group",does not reflect changes
same,cisplatin-induced reduction in body weight under joint treatment,"[3]; cardiotrophin-1 100 μg/kg i.v. 7 days + cisplatin 6 mg/kg i.p., vs cisplatin",significantly less
same,cisplatin-induced increase in plasma creatinine under joint treatment,"[3]; cardiotrophin-1 100 μg/kg i.v. 7 days + cisplatin 6 mg/kg, vs cisplatin",significantly less
same,physical condition during coadministration with cisplatin,[3]; cardiotrophin-1 + cisplatin,spectacular improvement
same,cisplatin-induced increase in final kidney weight under joint treatment,"[3]; cardiotrophin-1 + cisplatin, vs cisplatin",substantially less
same,effect on cisplatin-induced kidney injury (conclusion),"[3]; rat cardiotrophin-1 100 μg/kg/day i.v. 7 days, cisplatin 6 mg/kg",protective effect
same,survival,"[3]; throughout the experimental period, vs control group",does not modify the survival
same,urinary flow under joint administration with cisplatin,[3]; without significant differences vs control and cardiotrophin-1 groups,constant evolution
same,"gentamicin-induced symptoms (appearance, mobility, hair) in group G+CT-1",[4]; CT-1 100 μg/kg/day i.v. 7 days + gentamicin 150 mg/kg/day i.p. 6 days,significantly reduced
same,effect on the decrease in creatinine clearance produced by G,[4]; CT-1 together with G,partially reversed
same,effect on the increase in plasma creatinine produced by G,[4]; CT-1 together with G,partially reversed
same,effect on the increase in plasma urea concentration produced by G,[4]; CT-1 together with G,partially reversed
same,effect on the proteinuria produced by G,[4]; CT-1 together with G,partially reversed
same,urinary flow,"[4]; administered separately, vs control group (C)","Neither G nor CT-1, administered separately, modified the urinary flow"
same,creatinine clearance,[4]; agent alone,did not alter
same,"general condition (appearance, mobility)",[4]; agent alone,healthy appearance and normal mobility
same,plasma creatinine,[4]; agent alone,did not alter
same,proteinuria,[4]; agent alone,did not alter
same,urea plasma concentration,[4]; agent alone,did not alter
same,reactive bands to the anti KIM-1 antibody in the urine,"[4]; agent alone, vs controls",does not produce any effect
same,renal levels of KIM-1 (Western blot),"[4]; agent alone, vs controls",does not produce any effect
same,liver weight (with respect to the body weight),[4]; at the time of sacrifice,certain hepatomegaly
same,spleen weight (with respect to the body weight),[4]; at the time of sacrifice,marked splenomegaly
same,systolic blood pressure (SBP),[4]; basal vs end of treatments (d 6),not observed
same,extension of gentamicin tubular damage under cotreatment (histology),[4]; cotreatment with CT-1,moderately and partially prevents the extension of tubular damage
same,renal and urinary NGAL (Western blot),[4]; end of treatments,induce an increase
same,effect on the increase in NAG excretion produced by G,[4]; especially the submaximal of the first days,reduces this increase
same,effect on the increase in KIM-1 expression in the kidney that G produces,[4]; group G+CT-1,does not appreciably decrease
same,effect on the weight loss produced by G,[4]; group G+CT-1,partially mitigated
same,upper band (approx. 90 kDa) of KIM-1 in the urine under G with CT-1,[4]; group G+CT-1,partially decreases
same,effect on acute kidney injury produced by gentamicin (conclusion),"[4]; recombinant human CT-1 i.v. 100 μg/kg/day, 7 days",protective effect
same,survival,[4]; until the end of the experiment,all animals survived until the end of the experiment
